The term Kd denotes a measure of binding affinity in units of concentration.

*1 amine or outer side, *2 acyl side, *3 side chain or, on linkers, in order; H or OH if unused. Bridges are numbered along the chain shown (N, C = ends). Side-chain parts run from the residue outwards. [ ]: non-standard residue; d: D form. VCPAB = valine-citrulline p-aminobenzylcarbamate linker, CC(C)[C@H](N[*:1])C(=O)N[C@@H](CCCNC(N)=O)C(=O)Nc1ccc(COC(=O)[*:2])cc1; tBuAla = CC(C)(C)C[C@H](N)C(=O)O; MMAE = monomethyl auristatin E; Tle = CC(C)(C)[C@H](N)C(=O)O; Nle = CCCC[C@H](N)C(=O)O; βAla = NCCC(=O)O; Sar = CNCC(=O)O

We go through two molecules from patent US20240285785A1, “TARGETING SORTILIN” (priority 2022, published 2024).

A short description of series [1]: Murine hematotoxicity assay. The following applies: 3 mg/kg i.v. QW×4, compared to vehicle or MMAE treatment. The format is in vivo, BALB/c mice. As to the method:
Murine hematotoxicity experiments were conducted at Charles River Laboratories and the care and use of animals was conducted in accordance with the regulations of the Association for Assessment and Accreditation of Laboratory Animal Care (AAALAC). Wild type BALB/c, female, 7-8 weeks, weighing approximately 18-22 g were randomized and dosed intravenously with control or test articles at a QW×4 schedule. Dosing volume was adjusted based on body weight and was administered at 10 mL/Kg. PDCs were dissolved in 25 mM Histidine 10% sucrose pH 7 and 3 mg/kg was administered. Free MMAE payload was also tested, and similarly dissolved in 25 mM Histidine 10% sucrose pH 7 and administered to the mice at a dose of […] by i.v. injection at a QW×4 schedule. 3 days following each dose, 150 μL of whole blood was collected via submandibular method and placed in K2 EDTA tubes stored on ice. Blood neutrophil counts were performed on the day of collection by IDEXX labs. Body weights were recorded twice a week until study endpoint.
As outlined in the material and methods of Example 1, wild type BALB/c, female, 7-8 weeks, weighing approximately 18-22 g were randomized and dosed intravenously with control or test articles at a QW×4 schedule. Dosing volume was adjusted based on body weight and was administered at 10 ml/Kg. […] Free MMAE payload was also tested, and similarly dissolved in 25 mM Histidine 10% sucrose pH 7 and administered to the mice at a dose of […] by i.v. injection at a QW×4 schedule. 3 days following each dose, 150 μL of whole blood was collected via submandibular method and placed in K2 EDTA tubes stored on ice. Blood neutrophil counts were performed on the day of collection by IDEXX labs. Body weights were recorded twice a week until study endpoint.

Series [2] in a line: Murine plasma stability assay. Type of series: in vitro ADME. As to conditions: mouse, 37° C., read-out: Murine plasma stability assay, T1/2. As to the method: Frozen plasma was thawed at 37° C. and centrifuged at 4000 rpm to remove any clots and transferred to 96-well reaction plates by WuXi AppTec. Test compounds were added to the reaction plate at a final concentration of 2 μM and either stopped immediately or incubated at 37° C. for 5 minutes, 10 minutes, 30 minutes, 60 minutes, or 120 minutes. At the end of incubation, stop solution consisting of 200 ng/mL tolbutamide and 200 ng/mL labetalol in ACN was added to precipitate protein and mixed thoroughly. Samples were then transferred to a bioanalysis plate and shaken for 10 minutes prior to HPLC-MS/MS analysis of percent remaining compound.

The next series has as its system MDA-MB-231 tumor cells. Nature of the series: MDA-MB-231 murine xenograft efficacy model. Type of series: in vivo, BALB/c Nude mice. As to the method: Murine xenograft experiments were conducted at WuXi AppTec and/or Charles River Laboratories and the care and use of animals was conducted in accordance with the regulations of the Association for Assessment and Accreditation of Laboratory Animal Care (AAALAC). MDA-MB-231 tumor cells (ATCC, Manassas, VA, cat #HTB-26) were grown and maintained in L15 medium supplemented with 10% heat inactivated fetal bovine serum, 1% Antibiotic-Antimycotic, and L-glutamine (2 mM) at 37° C. in an atmosphere in 5% CO2, 95% air. BALB/c Nude, female, 6-8 weeks, weighing approximately 18-22 g were purchased from Vital River Laboratory Animal Technology Co., LTD. Mice were inoculated subcutaneously at the right flank with MDA-MB-231 tumor cells (e.g., triple negative breast cancer cells) (10×10^6) in 0.2 mL of PBS with Matrigel (1:1) for tumor development. Animals were randomized and treatment was started when the average tumor volume reached approximately 150-200 mm^3 for the efficacy study. Dosing volume was adjusted based on body weight and was administered at 10 ml/Kg. […] Free MMAE payload was also tested, and similarly dissolved in 25 mM Histidine 10% sucrose pH 7 and one or more of the following doses, 0.6, 0.06 mg/kg, were administered to the mice i.v. at a QW×4 schedule. Tumor sizes were measured twice weekly in two dimensions using a caliper, and the volume in mm^3 calculated using the formula: V=0.5 a×b^2, where a and b are the long and short diameters of the tumor, respectively. TGI was calculated for each group using the formula: TGI (%)=[1−(Ti−T0)/(Vi−V0)]×100; where Ti is the average tumor volume of a treatment group on a given day, T0 is the average tumor volume of the treatment group on the first day of treatment, Vi is the average tumor volume of the vehicle control group on the same day with Ti, and V0 is the average tumor volume of the vehicle group on the first day of treatment.

Series [3] addresses T1, Human SORT1 (78-755)-His (Acrobiosystems) (human, UniProt Q99523 78-755).
T1 construct: range 78-755; Amine-coupled to a CM5 chip in the SPR assay; not shown: His tag
T1 sequence (looked up): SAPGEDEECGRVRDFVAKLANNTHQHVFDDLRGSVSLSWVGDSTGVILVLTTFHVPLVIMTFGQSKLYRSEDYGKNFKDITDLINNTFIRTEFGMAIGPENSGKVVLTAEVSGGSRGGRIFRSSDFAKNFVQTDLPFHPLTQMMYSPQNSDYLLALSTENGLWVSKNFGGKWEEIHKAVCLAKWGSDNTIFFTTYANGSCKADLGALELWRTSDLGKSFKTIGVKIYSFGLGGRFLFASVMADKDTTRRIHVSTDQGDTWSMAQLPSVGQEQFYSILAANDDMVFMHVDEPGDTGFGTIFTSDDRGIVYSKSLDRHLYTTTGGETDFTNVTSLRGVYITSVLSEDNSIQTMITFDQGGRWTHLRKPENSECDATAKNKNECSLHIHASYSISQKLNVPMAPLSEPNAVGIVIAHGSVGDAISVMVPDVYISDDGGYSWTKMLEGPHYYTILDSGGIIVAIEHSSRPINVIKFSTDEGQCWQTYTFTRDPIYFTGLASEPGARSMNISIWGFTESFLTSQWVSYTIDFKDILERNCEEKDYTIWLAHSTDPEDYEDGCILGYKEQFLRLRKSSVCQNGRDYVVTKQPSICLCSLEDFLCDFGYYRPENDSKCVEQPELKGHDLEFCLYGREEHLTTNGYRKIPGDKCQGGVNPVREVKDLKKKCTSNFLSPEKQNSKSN
Nature of the series: SPR (Biacore 8K), SORT1 amine-coupled to CM5 chip, PDC as analyte, 1:1 kinetic model. On the procedure:
SPR analysis was performed on Series S CM5 chips (Cytiva) using a Biacore 8K instrument (Cytiva). Sensorgrams were double-referenced by subtracting the response on both a reference flow cell and a blank sample. Human SORT1 (78-755)-His (Acrobiosystems) was diluted to 60 μg/mL in 10 mM sodium acetate pH 4.5 buffer and immobilized onto Series S CM5 chips using amine coupling at a flow rate of 10 μL/min for 45 s. The final immobilization level of SORT1 was between 2200-2600 RU.
For the multi-cycle kinetics analysis runs, a running buffer of 1×PBS pH 7.4, 0.005% Tween-20 was used. Five start-up cycles and a blank cycle preceded each analysis run. The runs were performed by sequential injections of analyte (0-25 nM) with a 150 seconds (s) association and 300 s dissociation at a flow rate of 30 μL/min, followed by a regeneration with 2 M MgCl₂ for 200 s at a flow rate of 10 μL/min. The kinetic rate constants (kₐ and kd) and the equilibrium binding constant (Kd) were calculated using a 1:1 kinetic binding model on the Biacore Insight Evaluation Software (Cytiva).
On the technique in general: SPR reads the build-up and loss of mass on a sensor chip optically.

As to `CC[C@H](C)[C@@H]([C@@H](CC(=O)N1CCC[C@H]1[C@H](OC)[C@@H](C)C(=O)N[C@H](C)[C@@H](O)c1ccccc1)OC)N(C)C(=O)[C@@H](NC(=O)[C@H](C(C)C)N(C)C(=O)OCc1ccc(NC(=O)[C@H](CCCNC(N)=O)NC(=O)[C@@H](NC(=O)CCCC(=O)NCCC(=O)N(C)CC(=O)N(C)CC(=O)N(C)CC(=O)N(C)CC(=O)N[C@@H](C)C(=O)N2CCC[C@H]2C(=O)N[C@@H](CCCNC(=N)N)C(=O)N[C@@H](Cc2c[nH]c3ccccc23)C(=O)N[C@@H](CC(=O)O)C(=O)N[C@@H](C)C(=O)N2CCC[C@H]2C(=O)N[C@@H](CC(C)C)C(=O)N[C@@H](CCCNC(=N)N)C(=O)N[C@@H](CC(=O)O)C(=O)N2CCC[C@H]2C(=O)N[C@@H](C)C(=O)N[C@@H](CC(C)C)C(=O)N[C@@H](CCCNC(=N)N)C(=O)N[C@@H](CCC(N)=O)C(=O)N[C@H](C(=O)N[C@@H](CC2CCC2)C(=O)O)C(C)(C)C)C(C)C)cc1)C(C)C` [Arb-SAR-Q15-PDC], the blood neutrophil counts result in series [1] is given as “reduced neutrophil counts”. Moreover, in series [2], the half-life at 2 μM was 49.7 min. Moreover, the “tumor growth inhibited relative to vehicle” value with MDA-MB-231 tumor cells (3 mg/kg i.v. QW×4, day 22 (Example 8)) amounted to 98%. Besides, the body weight loss result in the series on MDA-MB-231 tumor cells (Example 8, PDC 3 mg/kg, free MMAE 0.6 mg/kg, i.v. QW×4) is reported as “body weight loss tracked each other”.

B1: Arb_cyclic_G23-PDC (peptide)
peptide: Ac-RWCENK([Sar-Sar-Sar-Sar-βAla-VCPAB-MMAE])R[Nle]FTCRQ[Tle][tBuAla]-OH
modifications: disulfide 3-11
notes: C-term COOH
In series [3], B1 returned a Kd of 0.89 nM.
